The record followed here is patent US20180127735A1.

Data set [1] deals with thrombin (Homo sapiens (Human)) (UniProt P00734). The data set is described as follows: cell-based or functional assay.
For a further data set, the target named is protein C (UniProt P04070).

With “full-length thrombomodulin (from UniProt P07204 19-575) (receptor)”, the clotting time of fibrinogen by thrombin with thrombomodulin at saturating concentrations in data set [1] is less than 305 min.

As for thrombin, in the data set with protein C, the “enzyme-mediated conversion of protein C into activated protein C (aPC), thrombin in the absence of TM” value is listed as “minimal activated protein C (aPC) activity was generated”.
